Reference: PMC9898740, “Spatial control of self-organizing vascular networks with programmable aptamer-tethered growth factor photopatterning”

Biological target: VEGF165 (UniProt P15692-4 27-191)
Test: hydrogel sequestration, anti-VEGFA immunofluorescence (confocal); aptamer tethered in GelMA hydrogel, 10 ng VEGF 1 h; GelMA region without aptamer about 16% of the aptamer-region signal; 0.1% BSA in DPBS, 37 °C, 10 ng VEGF in 1 ml for 1 h, wash, 24 h at 37 °C; 25 µM aptamer in 5% GelMA
Conditions: protein: commercial; chain copies: 2; single strand, covalently tethered in GelMA hydrogel

VEGF165, sequence (P15692 other isoform, or with tags, fused parts or gaps): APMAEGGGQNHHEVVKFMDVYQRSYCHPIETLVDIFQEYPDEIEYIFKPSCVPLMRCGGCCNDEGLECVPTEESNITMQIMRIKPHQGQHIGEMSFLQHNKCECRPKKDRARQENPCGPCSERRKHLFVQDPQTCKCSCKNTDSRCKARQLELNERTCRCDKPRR

Does CGATCGTATCAGTCCACAAGCCCGTCTTCCAGACAAGAGTGCAGGGC (ssDNA, 5'-acrydite) [VEGF165-specific 5'-acrydite aptamer] bind?
Result: binds
